B2: ribonuclease A (enzyme, UniProt P61823 27-150, looked up)
chain: KETAAAKFERQHMDSSTSAASSSNYCNQMMKSRNLTKDRCKPVNTFVHESLADVQAVCSQKNVACKNGQTNCYQSYSTMSITDCRETGSSKYPNCAYKTTQANKHIIVACEGNPYVPVHFDASV
notes: also called RNASE A; RNase A

Key:
ribonuclease A = molecular target: B2; assay: affinity chromatography on RNase A-Sepharose 4B resin
[1] = molecular target: T1, C329A human ribonuclease inhibitor (human, UniProt P13489 2-461, limits assumed); assay: inhibition of RNase A activity, poly(C) cleavage assay
T1 construct: also called C329A hRI
T1 sequence: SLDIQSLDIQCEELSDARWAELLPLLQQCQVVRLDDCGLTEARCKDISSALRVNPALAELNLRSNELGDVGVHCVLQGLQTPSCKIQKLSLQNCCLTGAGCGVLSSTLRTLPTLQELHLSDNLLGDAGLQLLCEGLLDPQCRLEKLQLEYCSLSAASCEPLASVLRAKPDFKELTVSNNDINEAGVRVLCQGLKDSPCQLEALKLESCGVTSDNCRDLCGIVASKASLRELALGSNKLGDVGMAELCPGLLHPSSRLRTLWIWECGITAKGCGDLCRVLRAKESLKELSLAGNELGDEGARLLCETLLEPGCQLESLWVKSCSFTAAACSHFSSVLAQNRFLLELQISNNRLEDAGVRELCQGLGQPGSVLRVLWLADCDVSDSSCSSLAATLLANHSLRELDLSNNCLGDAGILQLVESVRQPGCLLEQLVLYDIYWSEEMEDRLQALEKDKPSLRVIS
Experimental: (§1) A solution (101) of 20 mM HEPES-HCl buffer, pH 7.6, containing KCl (50 mM) and RNASE A (80 nM) was added to each of the hRI solutions. The resulting mixtures were incubated at 37° C. for 5 min. The ribonucleolytic activity in each mixture was then assessed by using a spectrophotometric assay for poly(C) cleavage, as described (delCardayre et al., 1995), with [poly(C)]=37 μM. This experiment was performed at least twice with wild-type hRI and each variant.

[2] = molecular target: T2, C330A human ribonuclease inhibitor (human, UniProt P13489 2-461, limits assumed); assay: as above
T2 construct: also called C330A hRI
T2 sequence: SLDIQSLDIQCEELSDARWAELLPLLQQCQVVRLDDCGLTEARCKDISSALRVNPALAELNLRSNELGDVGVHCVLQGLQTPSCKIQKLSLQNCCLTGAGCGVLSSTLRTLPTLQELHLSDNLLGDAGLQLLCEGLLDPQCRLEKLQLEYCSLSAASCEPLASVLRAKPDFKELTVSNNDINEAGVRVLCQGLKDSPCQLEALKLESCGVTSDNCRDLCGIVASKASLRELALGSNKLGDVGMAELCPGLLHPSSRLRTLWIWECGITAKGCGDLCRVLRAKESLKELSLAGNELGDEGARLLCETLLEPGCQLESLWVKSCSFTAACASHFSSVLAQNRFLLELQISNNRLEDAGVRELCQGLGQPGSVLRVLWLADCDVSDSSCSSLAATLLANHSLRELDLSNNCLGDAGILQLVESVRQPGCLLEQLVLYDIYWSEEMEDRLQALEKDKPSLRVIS
Experimental: as §1

[3] = molecular target: T3, C329A/C330A human ribonuclease inhibitor (human, UniProt P13489 2-461, limits assumed); assay: affinity chromatography on RNase A-Sepharose 4B resin
T3 construct: also called C329A/C330A hRI
T3 sequence: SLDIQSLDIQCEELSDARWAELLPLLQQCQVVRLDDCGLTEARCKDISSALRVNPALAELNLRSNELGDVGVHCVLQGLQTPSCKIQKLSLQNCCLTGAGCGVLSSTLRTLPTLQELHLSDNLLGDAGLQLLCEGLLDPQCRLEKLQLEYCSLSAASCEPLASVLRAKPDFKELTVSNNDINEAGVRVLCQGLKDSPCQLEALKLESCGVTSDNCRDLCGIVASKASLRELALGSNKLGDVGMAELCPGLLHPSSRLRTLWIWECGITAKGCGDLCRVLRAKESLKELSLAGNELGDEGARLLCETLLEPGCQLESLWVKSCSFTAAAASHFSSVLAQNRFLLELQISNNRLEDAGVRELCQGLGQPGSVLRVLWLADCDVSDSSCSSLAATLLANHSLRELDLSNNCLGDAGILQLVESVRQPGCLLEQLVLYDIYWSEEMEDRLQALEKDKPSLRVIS

[4] = molecular target: T4, wild-type human ribonuclease inhibitor (human, UniProt P13489 2-461, limits assumed); assay: as above
T4 construct: Made in E. coli from plasmid pET-RI; also called hRI; wild-type hRI
T4 sequence: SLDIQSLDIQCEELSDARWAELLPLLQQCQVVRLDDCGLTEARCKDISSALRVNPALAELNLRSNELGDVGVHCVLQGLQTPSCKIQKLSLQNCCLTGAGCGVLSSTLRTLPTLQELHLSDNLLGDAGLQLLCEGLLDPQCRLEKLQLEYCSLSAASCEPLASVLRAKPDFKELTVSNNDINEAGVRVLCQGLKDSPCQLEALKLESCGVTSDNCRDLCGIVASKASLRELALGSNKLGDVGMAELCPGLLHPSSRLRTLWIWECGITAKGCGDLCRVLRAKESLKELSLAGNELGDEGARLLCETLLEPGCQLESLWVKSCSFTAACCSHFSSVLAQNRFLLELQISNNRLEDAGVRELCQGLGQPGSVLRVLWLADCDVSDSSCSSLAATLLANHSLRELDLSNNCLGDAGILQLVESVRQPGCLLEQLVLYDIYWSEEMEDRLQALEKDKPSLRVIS

[5] = molecular target: T5, C95A/C96A human ribonuclease inhibitor (human, UniProt P13489 2-461, limits assumed); assay: as above
T5 construct: also called C95A/C96A hRI
T5 sequence: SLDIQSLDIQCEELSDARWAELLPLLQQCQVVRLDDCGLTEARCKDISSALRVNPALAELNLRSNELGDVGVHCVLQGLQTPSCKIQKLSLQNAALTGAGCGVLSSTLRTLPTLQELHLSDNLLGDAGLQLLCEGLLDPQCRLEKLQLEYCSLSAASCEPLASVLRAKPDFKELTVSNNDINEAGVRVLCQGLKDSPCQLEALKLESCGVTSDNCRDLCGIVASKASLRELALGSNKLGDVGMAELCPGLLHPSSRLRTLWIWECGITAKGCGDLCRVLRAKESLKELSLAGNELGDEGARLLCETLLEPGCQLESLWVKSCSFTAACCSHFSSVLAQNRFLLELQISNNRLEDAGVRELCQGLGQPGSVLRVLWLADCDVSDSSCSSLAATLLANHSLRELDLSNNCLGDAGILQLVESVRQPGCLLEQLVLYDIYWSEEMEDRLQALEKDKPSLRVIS

Measured: binding result

B1: C95A/C96A/C329A/C330A human ribonuclease inhibitor (other)
chain: SLDIQSLDIQCEELSDARWAELLPLLQQCQVVRLDDCGLTEARCKDISSALRVNPALAELNLRSNELGDVGVHCVLQGLQTPSCKIQKLSLQNAALTGAGCGVLSSTLRTLPTLQELHLSDNLLGDAGLQLLCEGLLDPQCRLEKLQLEYCSLSAASCEPLASVLRAKPDFKELTVSNNDINEAGVRVLCQGLKDSPCQLEALKLESCGVTSDNCRDLCGIVASKASLRELALGSNKLGDVGMAELCPGLLHPSSRLRTLWIWECGITAKGCGDLCRVLRAKESLKELSLAGNELGDEGARLLCETLLEPGCQLESLWVKSCSFTAAAASHFSSVLAQNRFLLELQISNNRLEDAGVRELCQGLGQPGSVLRVLWLADCDVSDSSCSSLAATLLANHSLRELDLSNNCLGDAGILQLVESVRQPGCLLEQLVLYDIYWSEEMEDRLQALEKDKPSLRVIS
notes: Variant with all four substitutions; also called C95A/C96A/C329A/C330A hRI
binds: ribonuclease A

B2
not listed: ribonuclease A
binds: all other assays above

Source: patent US7560248 (WISCONSIN ALUMNI RESEARCH FOUNDATION, dated 2009)
